Values belong to the binder of their own block, whether it stands above or below them.
Key:
Nedd8 [1] = target: T1, Nedd8 (human, UniProt Q15843 1-76); experiment: fluorescence intensity, free Nedd8 titrated into Atto532-tIV
T1 construct: also called free Nedd8; Nedd8 protein

[2] = target: T2, Ubiquitin (free, untagged) (human, UniProt P0CG48 1-76); experiment: fluorescence intensity of the Atto532-tagged sensor against free ubiquitin concentration, single-site fit
T2 construct: also called free ubiquitin; unconjugated ubiquitin protein

[3] = target: T2, Ubiquitin (free, untagged); experiment: relative fluorescence competition against 5 nM Atto532-tagged ubiquitin on 600 nM tSR
Nedd8 [4] = target: T1, Nedd8; experiment: direct titration, relative fluorescence of 10 nM Alexa488 tSR

T1 sequence (Q15843 1-76 limits assumed): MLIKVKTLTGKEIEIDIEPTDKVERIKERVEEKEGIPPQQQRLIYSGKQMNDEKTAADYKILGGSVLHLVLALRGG

Kd (Nedd8 [1]): 9.4 µM
binding result [2]: binds
B1: Atto532-tagged tIV L1 Cys (designed binder)
chain: MGSSHHHHHHSSGLVPRGSHMKQEVQAWDGEVRQVSKHAFSLKQLDNPARIPPSGWKCSKCDMRENLWLNLTDGSILCGRRYFDGSGGNNHAVEHYRETGYPLAVKLGTITPDGADVWSYDEDDMVLDPSLAEHLSHFGIDMLKMQKGSCAAAEEAELDLKAAIQESLREA
modifications: Atto532 fluorophore on the Cys of linker 1 (the bold C of the 2nd table)
notes: Two domains: IsoT^ZnF and Vps27^UIM; also called Atto532-tIV

binding result [3]: binds
B2: tSR chimeric polypeptide sensor (designed binder)
chain: MPSSHHHHHHSSGLVPRGSHMTEEEQIAYAMQMSLREAGGGSDLLCKKGCGYYGNPAWQGFCSKCWREEAHKCAAERAAAE
notes: His-tag leader, S5a^UIM, linker, Ruz; also called tSR chimeric peptide universal sensor

binding result (Nedd8 [4]): no binding
B3: Alexa488-tagged tSR (designed binder)
chain: MPSSHHHHHHSSGLVPRGSHMTEEEQIAYAMQMSLREAGGGSDLLCKKGCGYYGNPAWQGFCSKCWREEAHKCAAERAAAE
modifications: Alexa488 fluorophore, attachment site not stated
notes: also called Alexa488 tSR; fluorophore-tagged tSR

binding result [2]: binds
B4: Atto532-tagged IsoT^ZnF (S227C) (designed binder)
chain: MPSSHHHHHHSSGLVPRGSHMKQEVQAWDGEVRQVSKHAFSLKQLDNPARIPPSGWKCSKCDMRENLWLNLTDGSILCGRRYFDGCGGNNHAVEHYRETGYPLAVKLGTITPDGADVYSYDEDDMVLDPSLAEHLSHFGIDMLKMQK
modifications: Atto532 fluorophore on the Cys of S227C (the bold C of the 2nd table)
